Measured values taken from the RNAGym collection of RNA variant scans (doi:10.7554/elife.80360).

B1: Hairpin Ribozyme (parent)
chain: GUCCUCUUUCACGUGCGCGUGAAAGAGAGAAGUGAACCAGAGAAACACACGUUGUGGUAUAUUACCUGGUA

Variants of: B1
Test: self-cleavage, relative activity (ratio to wild type); higher = more cleavage; co-transcriptional
With GUCCUCUUUCACGUCCGCGUGAGAGAGAGAAGUGAACCAGAGAAACACACGUUGUGGUAUAUUACCUGGUA the self-cleavage was 1.05.
GUCCUCUUUCACGUACGCGUUAAAGAGAGAAGUGAACCAGAGAAACACACGUUGUGGUAUAUUACCUGGUA gave a self-cleavage of 0.841.
In the case of GUCCUCUUUCACGUCCGCGUUAAAGAGAGAAGUGAACCAGAGAAACACACGUUGUGGUAUAUUACCUGGUA, the self-cleavage is reported as 1.06.
GUCCUCUUUCACGUCCGCGUCAAAGAGAGAAGUGAACCAGAGAAACACACGUUGUGGUAUAUUACCUGGUA gave a self-cleavage of 0.897.
For GUCCUCUUUCACGUCCACGUGAAAGAGAGAAGUGAACCAGAGAAACACACGUUGUGGUAUAUUACCUGGUA, the self-cleavage was 1.03.
For GUCCUCUUUCACGUCCCCGUGAAAGAGAGAAGUGAACCAGAGAAACACACGUUGUGGUAUAUUACCUGGUA, the self-cleavage was 0.668.
Work on GUCCUCUUUCACGUACGCGUGAAAGAUAGAAGUGAACCAGAGAAACACACGUUGUGGUAUAUUACCUGGUA yielded a self-cleavage of 0.373.
Variant GUCCUCUUUCACGUCCGCGUGAAAGAGAGAAGUGAACCGGAGAAACACACGUUGUGGUAUAUUACCUGGUA has a self-cleavage of 0.304.
Work on GUCCUCUUUCACGUACGCAUGAAAGAGAGAAGUGAACCAGAGAAACACACGUUGUGGUAUAUUACCUGGUA yielded a self-cleavage of 0.898.
GUCCUCUUUCACGUACGCUUGAAAGAGAGAAGUGAACCAGAGAAACACACGUUGUGGUAUAUUACCUGGUA gave a self-cleavage of 0.942.
Variant GUCCUCUUUCACGUACGCCUGAAAGAGAGAAGUGAACCAGAGAAACACACGUUGUGGUAUAUUACCUGGUA has a self-cleavage of 0.856.
GUCCUCUUUCACGUACGCGUGAAAGAGAGAAGUGAACCAGAGAAACACACGUUAUGGUAUAUUACCUGGUA gave a self-cleavage of 0.572.
With GUCCUCUUUCACGUACGCGUGAAAGAGAGAAGUGAACCAGAGAAACACACGUUCUGGUAUAUUACCUGGUA the self-cleavage was 0.364.
Work on GUCCUCUUUCACGUCCGCGUGAAAGAGAGAAGUGAACCAGAGAAAGACACGUUGUGGUAUAUUACCUGGUA yielded a self-cleavage of 0.0585.
With GUCCUCUUUCACGUACGCGUGAAAGAGAGAAGUGAACCAGAGAAACACACGUUGUGGUAUAUUACGUGGUA the self-cleavage was 0.0886.
For GUCCUCUUUCACGUCCGCGUGAAAGAUAGAAGUGAACCAGAGAAACACACGUUGUGGUAUAUUACCUGGUA, the self-cleavage was 0.214.
With GUCCUCUUUCACGUCCGCGUGAAAGACAGAAGUGAACCAGAGAAACACACGUUGUGGUAUAUUACCUGGUA the self-cleavage was 0.204.
GUCCUCUUUCACGUACGCGUGAAAGAGAGAAGUGAACCAGAGAAACAAACGUUGUGGUAUAUUACCUGGUA showed a self-cleavage of 0.133.
Work on GUCCUCUUUCACGUACGCGUGAAAGAGAGAAGUGAACCAGAGAAACAUACGUUGUGGUAUAUUACCUGGUA yielded a self-cleavage of 0.0998.
GUCCUCUUUCACGUACGCGUGAAAGAGAGAAGUGAACCAAAGAAACACACGUUGUGGUAUAUUACCUGGUA gave a self-cleavage of 0.306.
For GUCCUCUUUCACGUACGCGUGAAAGAGAGAAGUGAACCACAGAAACACACGUUGUGGUAUAUUACCUGGUA, the self-cleavage was 0.112.
For GUCCUCUUUCACGUACGCGUGAAAGAGAGAAGUGAACCAGAGAAACACACGUUGUGAUAUAUUACCUGGUA, the self-cleavage was 0.167.
GUCCUCUUUCACGUACGCGUGAAAGAGAGAAGUGAACCAGAGAAACACACGUUGUGCUAUAUUACCUGGUA showed a self-cleavage of 0.101.
For GUCCUCUUUCACGUACGCGUGAAAGAGAGAAGUGAACUAGAGAAACACACGUUGUGGUAUAUUACCUGGUA, the self-cleavage was 0.44.
In the case of GUCCUCUUUCACGUACGCGUGAAAGAGAGAAGUGAACCAGAGAAACACACGUUGUGGUAGAUUACCUGGUA, the self-cleavage is reported as 0.639.
In the case of GUCCUCUUUCACGUCCGCGUGAAAGAGAGAAGUGAACCAGAGAAACACGCGUUGUGGUAUAUUACCUGGUA, the self-cleavage is reported as 0.523.
In the case of GUCCUCUUUCACGUCCGCGUGAAAGAGAGAAGUGAACCAGAGAAACACUCGUUGUGGUAUAUUACCUGGUA, the self-cleavage is reported as 0.102.
GUCCUCUUUCACGUCCGCGUGAAAGAGAGAAGUGAACCAGAGAAACACCCGUUGUGGUAUAUUACCUGGUA gave a self-cleavage of 0.101.
GUCCUCUUUCACGUACGCGUGAAAGAGAGAAGUGAACCAGAGAAACACACGUUGUGGUAUAUUACCUGGGA showed a self-cleavage of 0.838.
GUCCUCUUUCACGUACGCGUGAAAGAGAGAAGUGAACCAGAGAAACACACGUUGUGGUAUAUUACCUGGAA gave a self-cleavage of 0.689.
Work on GUCCUCUUUCACGUACGCGUGAAAUAGAGAAGUGAACCAGAGAAACACACGUUGUGGUAUAUUACCUGGUA yielded a self-cleavage of 0.573.
Work on GUCCUCUUUCACGUCCGCGUGAAAGAGAGAAGUGAUCCAGAGAAACACACGUUGUGGUAUAUUACCUGGUA yielded a self-cleavage of 0.505.
With GUCCUCUUUCACGUACGCGUGAAAGAGAAAAGUGAACCAGAGAAACACACGUUGUGGUAUAUUACCUGGUA the self-cleavage was 0.118.
Variant GUCCUCUUUCACGUCCGCGUGAAAGAGUGAAGUGAACCAGAGAAACACACGUUGUGGUAUAUUACCUGGUA has a self-cleavage of 0.74.
Variant GUCCUCUUUCACGUCCGCGUGAAAGAGAGAAGUGAACCAGAGAAACACACGUUGUGGUAUCUUACCUGGUA has a self-cleavage of 0.0894.
GUCCUCUUUCACGUCCGCGUGAAAGAGAGCAGUGAACCAGAGAAACACACGUUGUGGUAUAUUACCUGGUA gave a self-cleavage of 0.377.
Work on GUCCUCUUUCACGUCCGCGUGAAAGAGAGGAGUGAACCAGAGAAACACACGUUGUGGUAUAUUACCUGGUA yielded a self-cleavage of 0.198.
In the case of GUCCUCUUUCACGUCCGCGUGAAAGAGAGAAGUGAACCAGAGAAACACACGUUGUGGUAUAUUAGCUGGUA, the self-cleavage is reported as 0.369.
